Results published in patent US8470574B2, “L-succinylaminoacylase and process for producing L-amino acid using it” (Toyo Boseki Kabushiki Kaisha, priority 2008, dated 2013).
Entries after “also recorded” stand apart in the source; their conditions may differ.

Columns and labels:
[1] = Effect of metal ion on N-succinylamino acid racemase activity; assay type: biochemical; conditions: final concentration of 0.1 mM to 1 M
[2] = Ability of commercially available L-aminoacylase to synthesize L-tert-leucine, TLC (Comparative Example); assay type: biochemical; conditions: 2,600 U/mL enzyme solution, 25° C., 12 hours; TLC ninhydrin
Description: Acylase AMANO (Sigma, code No. 01818-5G) and porcine kidney Acylase I (Sigma, code No. A3010-100MG) were dissolved in 50 mM K-phosphate buffer (pH 7.5) so as to make each of them 2,600 U/mL to give an L-aminoacylase solution.
The above-mentioned 1 M HEPES (2.0 mL), 10 mM CoCl2 solution (0.1 mL) and 150 mM N-acetyl-L-tert-leucine (1.0 mL) were mixed with water (6.4 mL) to give a reaction reagent.
The above commercially available L-aminoacylase (Comparative Example 2) (0.5 mL) was added to the reaction reagent (9.5 mL) containing the above N-acetyl-L-tert-leucine and, after the above was gently stirred, the reaction was conducted at 25° C. for 12 hours. As a control test, the same reaction was conducted by adding 50 mM K-phosphate buffer (pH 7.5) to the reagent mixture in place of the L-aminoacylase solution. After the enzymatic reaction, the L-amino acid was directly detected by TLC and ninhydrin reaction by the same manner as in Example 2.

[3] = Synthesis of L-tryptophan from N-succinyl-L-tryptophan, TLC detection (Example 3); assay type: biochemical; conditions: TLC ninhydrin, as Example 2
Description: (§1) The reaction reagent containing the N-succinyl-L-amino acid as such was prepared by the same method as in the preparation of a reaction reagent containing N-succinyl-L-tert-leucine mentioned in (1).
(§2) The L-succinylaminoacylase (2.3 mg/mL, 0.5 mL) prepared in Example 1 was added to the reaction reagent (9.5 mL) containing the above N-succinyl-L-tert-leucine and, after the above was gently stirred, the reaction was conducted at 57° C. for 6 hours. As a control test, the same reaction was conducted by adding 50 mM K-phosphate buffer (pH 7.5) to the reagent mixture in place of the L-succinylaminoacylase solution. […]
(§3) N-Succinyl-L-valine, N-succinyl-L-phenylalanine, N-succinyl-L-tryptophan, N-succinyl-L-asparagine, N-succinyl-L-aspartic acid, N-succinyl-L-serine, N-succinyl-L-glutamic acid, N-succinyl-L-tert-leucine, N-succinyl-L-cyclohexylglycine or N-succinyl-L-4-bromophenylalanine is used as an N-succinyl-L-amino acid and a reaction reagent was prepared according to the method for the case of N-succinyl-L-tert-leucine. L-succinylaminoacylase of Example 1 was made to react using the resulting reaction reagent to synthesize an L-amino acid and the L-amino acid was directly detected by the same manner as in Example 2.

[4] = Synthesis of L-4-bromophenylalanine from N-succinyl-L-4-bromophenylalanine, TLC detection (Example 3); assay type: biochemical; conditions: TLC ninhydrin, as Example 2
Description: as §1, §2, §3

[5] = Activity to N-succinylamino acid compared with N-acetylamino acid; assay type: biochemical
[6] = Synthesis of L-serine from N-succinyl-L-serine, TLC detection (Example 3); assay type: biochemical; conditions: TLC ninhydrin, as Example 2
Description: as §1, §2, §3

[7] = Synthesis of L-valine from N-succinyl-L-valine, TLC detection (Example 3); assay type: biochemical; conditions: TLC ninhydrin, as Example 2
Description: as §1, §2, §3

[8] = Conversion of N-succinyl-DL-tert-leucine to L-tert-leucine with N-succinylamino acid racemase, HPLC (Example 6); assay type: biochemical; conditions: used together with N-succinylamino acid racemase, 1 wt % N-succinyl-DL-tert-leucine, 1 mM CoCl2, 57° C., up to 90 hours
Description: An L-succinylaminoacylase solution (1 mL; 2.3 mg/mL) prepared in Example 1 and the above N-succinylamino acid racemase (0.1 mL; 10.5 mg/mL) were added to a 1 wt % solution of N-succinyl-DL-tert-leucine (pH 7 to 8; 10 mL; containing 1 mM of CoCl2) and made to react at 57° C. for 90 hours with stirring to synthesize L-tert-leucine. The sample was collected after 24 hours and 90 hours from the start of the reaction and subjected to an HPLC measurement under the condition same as Example 4 to confirm the peaks of succinyl-form compound and free-form compound whereby the synthesis of L-tert-leucine from N-succinyl-DL-tert-leucine was confirmed.

[9] = Conversion of N-succinyl-L-tert-leucine to L-tert-leucine, HPLC (Example 4); assay type: biochemical; conditions: 1 wt % N-succinyl-L-tert-leucine, pH 7 to 8, 1 mM CoCl2, 57° C., up to 90 hours
Description: An L-succinylaminoacylase solution (1 mL; 2.3 mg/mL) was added to a 1 wt % solution of N-succinyl-L-tert-leucine (pH 7 to 8; 10 mL; containing 1 mM of CoCl2) and made to react at 57° C. for 90 hours with stirring to give L-tert-leucine. The sample was collected after 16 hours, 42 hours, 65 hours and 90 hours from the start of the reaction and subjected to an HPLC measurement under the following condition to confirm the peaks of succinyl-form compound and free-form compound whereby the synthesis of L-tert-leucine from N-succinyl-L-tert-leucine was confirmed.
Column: Inertsil ODS-2 (particle size: 5 μm; 4.6 mm inner diameter×250 mm length) manufactured by GL Science
Eluant: aqueous solution of phosphate (pH 2.3)/acetonitrile for HPLC=80:20
Column temperature: 40° C.

[10] = Synthesis of L-tert-leucine from N-succinyl-L-tert-leucine, TLC with ninhydrin detection (Examples 2, 3); assay type: biochemical; conditions: 57° C., 6 hours, CoCl2, HEPES pH 7.9
Description: The above-mentioned 1 M HEPES (2.0 mL), 10 mM CoCl2 solution (0.1 mL) and 150 mM N-succinyl-L-tert-leucine (1.0 mL) were mixed with water (6.4 mL) to give a reaction reagent.
as §2, §3

[11] = Synthesis of L-cyclohexylglycine from N-succinyl-L-cyclohexylglycine, TLC detection (Example 3); assay type: biochemical; conditions: TLC ninhydrin, as Example 2
Description: as §1, §2, §3

[12] = Synthesis of L-phenylalanine from N-succinyl-L-phenylalanine, TLC detection (Example 3); assay type: biochemical; conditions: TLC ninhydrin, as Example 2
Description: as §1, §2, §3

[13] = Synthesis of L-glutamic acid from N-succinyl-L-glutamic acid, TLC detection (Example 3); assay type: biochemical; conditions: TLC ninhydrin, as Example 2
Description: as §1, §2, §3

[14] = Synthesis of L-asparagine from N-succinyl-L-asparagine, TLC detection (Example 3); assay type: biochemical; conditions: TLC ninhydrin, as Example 2
Description: as §1, §2, §3

Optimum pH of the enzyme = assay type: biochemical; conditions: reaction at 60° C. for 30 minutes
[15] = Temperature stability of the enzyme; assay type: physicochemical; conditions: heating treatment for 30 minutes
[16] = Synthesis of L-aspartic acid from N-succinyl-L-aspartic acid, TLC detection (Example 3); assay type: biochemical; conditions: TLC ninhydrin, as Example 2
Description: as §1, §2, §3

[17] = Effect of metal ion on L-succinylaminoacylase activity; assay type: biochemical; conditions: metal ion Co2+ versus Zn2+
[18] = Conversion of N-succinyl-DL-tert-leucine to L-tert-leucine, HPLC (Example 5); assay type: biochemical; conditions: 1 wt % N-succinyl-DL-tert-leucine, pH 7 to 8, 1 mM CoCl2, 57° C., 90 hours, theoretically highest yield 50%
Description: An L-succinylaminoacylase solution (1 mL; 2.3 mg/mL) was added to a 1 wt % solution of N-succinyl-DL-tert-leucine (pH 7 to 8; 10 mL; containing 1 mM of CoCl2) and made to react at 57° C. for 90 hours with stirring to give L-tert-leucine. The sample was collected after finishing the reaction and subjected to an HPLC measurement under the condition same as the Example 4 to confirm the peaks of succinyl-form compound and free-form compound whereby the synthesis of L-tert-leucine from N-succinyl-DL-tert-leucine was confirmed. As a result, the yield was 45% or more and the value near 50% which is the theoretically highest yield was achieved.

B1: N-succinylamino acid racemase: N-succinylamino acid racemase (gene SEQ ID No: 3) derived from Geobacillus stearothermophilus NCA 1503 strain, per JP-A No. 2008-61642 (protein, listed as Geobacillus stearothermophilus)
chain: MAINIEYVILRHLQMELKAPFTTSFGTFQRKELILVEVVDRDGVSGWGESVAFSAPWYSEETVKTNWHMLEDFLVPLALAEPIHHPEELSKRFSAIRQNNMAKAALEGAVWDLYAKRLGVPLSQALGGAKKDIEVGVSIGIQPTVADLLQVIERYVAQGYRRIKVKIKPSWDVDVIREVRRVFPDVPLMADANSAYTLVDADRLKALDEFGLLMIEQPLAADDLVDHARLQPLLQTPICLDESIRSYDDARKALDLGSCRIINIKIGRVGGLGEAKRIHDLCAERGAPVWCGGMLEAGVGRAHNIAITTLENFTLPGDTAASSHYWERDIITPEVEVHGGLIRVPDAPGIGYDVDRRQVERYTQFAKVFHRTATA
modifications: CDS (1)..(1128)
relative activity with Co2+ as compared with Mn2+ [1]: twice or more higher

B2: porcine kidney Acylase I: commercially available L-aminoacylase (Sigma, code No. A3010-100MG) (protein, UniProt P37111 2-407, looked up)
Aminoacylase-1: ASKGREGEHPSVTLFRQYLRIRTVQPEPDYGAAVAFLEERARQLGLGCQKVEVVPGHVVTVLTWPGTNPTLSSILLNSHTDVVPVFKEHWSHDPFEGFKDADGYIYGRGAQDMKCVSIQYLEAVRRLKVEGHHFPRTIHMTFVPDEEVGGHQGMELFVKRPEFQALRAGFALDEGLASPTDAFTVFYSERSPWWLRVTSTGKPGHGSRFIEDTAAEKLHKVINSILAFREKEKQRLQSNQLKPGAVTSVNLTMLEGGVAYNVVPATMSACFDFRVAPDVDLKAFEEQLQSWCQAAGEGVTFEFVQKWMETQVTSTDDSDPWWAAFSGVFKDMKLALELEICPASTDARYIRAAGVPALGFSPMNHTPVLLHDHDERLHEAVFLRGVDIYTQLLSALASVPALPSES
ability to synthesize L-tert-leucine from N-acetyl-L-tert-leucine [2]: unable to synthesize L-tert-leucine

B3: L-succinylaminoacylase: L-succinylaminoacylase of NCA 1503 strain of Geobacillus stearothermophilus; amino acid sequence SEQ ID No: 2, expressed in Escherichia coli JM 109 (pLSA1) (protein, listed as Geobacillus stearothermophilus)
chain: MKEIVEQMKAELWEVFDHLHRHPEISWEEWQTTEFLRRELEREGYRVRTFADCPGVVAEIGAGPFTVGVRSDMDALWQEVNGVWQPNHACGHDAHMTIVLGVAKLLRRIGYEPPGTLRFLFQPAEEKGTGALKLIEKGAVDGVSFLYGVHLRPIQEVKGGYAAPAIIHGAAQCIEGRIRGVAAHAARPHLGVNVIEVGSAIVQELGKIHIDPQVPASIKMTKFHAGEKDANTIPGYAEFALDLRAQTNEAMERLVEGLRHVINGVAAIYGAEIELVERTRIVAAHPDPDAVRLMEEAIIAALGTEKCVPPVVTSGGEDFHFYSFQKPELKTTMLGLGCDLRPGLHHPNMTFRRDDLLSGVEILARTVINTFALQGENERVSVAANH
ability to synthesize L-tryptophan from N-succinyl-L-tryptophan [3]: able to synthesize the corresponding L-amino acid
ability to synthesize L-4-bromophenylalanine from N-succinyl-L-4-bromophenylalanine [4]: able to synthesize the corresponding L-amino acid; also recorded: reacts
activity to N-succinylamino acid relative to N-acetylamino acid [5]: at least 100 fold
ability to synthesize L-serine from N-succinyl-L-serine [6]: able to synthesize the corresponding L-amino acid
ability to synthesize L-valine from N-succinyl-L-valine [7]: able to synthesize the corresponding L-amino acid
yield (conversion rate into L-tert-leucine) [8]: about 85%
yield (conversion rate into L-tert-leucine) [9]: ≥ 90%
ability to produce L-tert-leucine from N-succinyl-L-tert-leucine [10]: able to produce the L-tert-leucine; also recorded: able to synthesize the corresponding L-amino acid; also recorded: reacts
ability to synthesize L-cyclohexylglycine from N-succinyl-L-cyclohexylglycine [11]: able to synthesize the corresponding L-amino acid; also recorded: reacts
ability to synthesize L-phenylalanine from N-succinyl-L-phenylalanine [12]: able to synthesize the corresponding L-amino acid
ability to synthesize L-glutamic acid from N-succinyl-L-glutamic acid [13]: able to synthesize the corresponding L-amino acid
ability to synthesize L-asparagine from N-succinyl-L-asparagine [14]: able to synthesize the corresponding L-amino acid
Optimum pH (Optimum pH of the enzyme): 7
Temperature stability: temperature at which inactivated [15]: ≥ 75 °C
Temperature stability: temperature at which stable [15]: 70 °C
ability to synthesize L-aspartic acid from N-succinyl-L-aspartic acid [16]: able to synthesize the corresponding L-amino acid
activity increase with Co2+ as compared with Zn2+ [17]: twice or more
yield of L-tert-leucine [18]: ≥ 45%
